Read-outs that look alike come from different tables or passages of the source. Blank lines part the entries; values can stand above or below the molecule they belong to.
Assays:
[1] = biological target: T1, human B-cell activating factor (BAFF) (human, UniProt Q9Y275 134-285)
[2] = biological target: T1, human B-cell activating factor (BAFF); experiment: ELISA; equilibrium binding in solution: human BAFF at 25 pM mixed with antagonist (0.04 nM to 655.36 nM) overnight at room temperature; unbound BAFF detected by ELISA
[3] = biological target: T1, human B-cell activating factor (BAFF); experiment: cell-based or functional assay

IC50 of inhibition of Raji cell proliferation induced by BAFF (1 μg/ml) and anti-IgM, CCK-8, 72 h [1]: 165 nM
Molecule: BAFF-Trap variant B102: CRD of Br3, CRD2 of TACI and Fc domain of human IgG1 (Fc fusion)

IC50 of inhibition of Raji cell proliferation induced by BAFF (1 μg/ml) and anti-IgM, CCK-8, 72 h; blocks BAFF from its receptors TACI and Br3 on Raji cells [1]: 50.6 nM
Kd [2]: 3.62 nM
Molecule: BAFF-Trap (variant B101): CRD2 of TACI, CRD of Br3 and Fc domain of human IgG1 (Fc fusion)

IC50 of inhibition of Raji cell proliferation induced by BAFF (1 μg/ml) and anti-IgM, CCK-8, 72 h [3]: 69.5 nM
B1: TACI-Fc (Fc fusion, UniProt O14836 1-165, looked up)
chain: MSGLGRSRRGGRSRVDQEERFPQGLWTGVAMRSCPEEQYWDPLLGTCMSCKTICNHQSQRTCAAFCRSLSCRKEQGKFYDHLLRDCISCASICGQHPKQCAYFCENKLRSPVNLPPELRRQRSGEVENNSDNSGRYQGLEHRGSEASPALPGLKLSADQVALVYS

Source: paper PMC6565627, “Therapeutic effects of a novel BAFF blocker on arthritis” (Signal Transduction and Targeted Therapy, 2019)
